Values joined by “and” are separate entries in the source; they are usually repeats but may differ in a detail not shown here. Identical values can stand only once.

Experiment [1] concerns the target recombinant histidine-tagged SCM-2 of S. canis strain IMT40096 (Streptococcus canis). Description: SPR.
The target in experiment [2] is recombinant histidine-tagged SCM-2 of S. canis strain IMT42870 (Streptococcus canis). In words: SPR.

B1: human fibrinogen (complex)
chain 1: GPRVVERHQSACKDSDWPFCSDEDWNYKCPSGCRMKGLIDEVNQDFTNRINKLKNSLFEYQKNNKDSHSLTTNIMEILRGDFSSANNRDNTYNRVSEDLRSRIEVLKRKVIEKVQHIQLLQKNVRAQLVDMKRLEVDIDIKIRSCRGSCSRALAREVDLKDYEDQQKQLEQVIAKDLLPSRDRQHLPLIKMKPVPDLVPGNFKSQLQKVPPEWKALTDMPQMRMELERPGGNEITRGGSTSYGTGSETESPRNPSSAGSWNSGSSGPGSTGNRNPGSSGTGGTATWKPGSSGPGSTGSWNSGSSGTGSTGNQNPGSPRPGSTGTWNPGSSERGSAGHWTSESSVSGSTGQWHSESGSFRPDSPGSGNARPNNPDWGTFEEVSGNVSPGTRREYHTEKLVTSKGDKELRTGKEKVTSGSTTTTRRSCSKTVTKTVIGPDGHKEVTKEVVTSEDGSDCPEAMDLGTLSGIGTLDGFRHRHPDEAAFFDTASTGKTFPGFFSPMLGEFVSETESRGSESGIFTNTKESSSHHPGIAEFPSRGKSSSYSKQFTSSTSYNRGDSTFESKSYKMADEAGSEADHEGTHSTKRGHAKSRPVRDCDDVLQTHPSGTQSGIFNIKLPGSSKIFSVYCDQETSLGGWLLIQQRMDGSLNFNRTWQDYKRGFGSLNDEGEGEFWLGNDYLHLLTQRGSVLRVELEDWAGNEAYAEYHFRVGSEAEGYALQVSSYEGTAGDALIEGSVEEGAEYTSHNNMQFSTFDRDADQWEENCAEVYGGGWWYNNCQAANLNGIYYPGGSYDPRNNSPYEIENGVVWVSFRGADYSLRAVRMKIRPLVTQ
chain 2: GHRPLDKKREEAPSLRPAPPPISGGGYRARPAKAAATQKKVERKAPDAGGCLHADPDLGVLCPTGCQLQEALLQQERPIRNSVDELNNNVEAVSQTSSSSFQYMYLLKDLWQKRQKQVKDNENVVNEYSSELEKHQLYIDETVNSNIPTNLRVLRSILENLRSKIQKLESDVSAQMEYCRTPCTVSCNIPVVSGKECEEIIRKGGETSEMYLIQPDSSVKPYRVYCDMNTENGGWTVIQNRQDGSVDFGRKWDPYKQGFGNVATNTDGKNYCGLPGEYWLGNDKISQLTRMGPTELLIEMEDWKGDKVKAHYGGFTVQNEANKYQISVNKYRGTAGNALMDGASQLMGENRTMTIHNGMFFSTYDRDNDGWLTSDPRKQCSKEDGGGWWYNRCHAANPNGRYYWGGQYTWDMAKHGTDDGVVWMNWKGSWYSMRKMSMKIRPFFPQQ
chain 3: YVATRDNCCILDERFGSYCPTTCGIADFLSTYQTKVDKDLQSLEDILHQVENKTSEVKQLIKAIQLTYNPDESSKPNMIDAATLKSRKMLEEIMKYEASILTHDSSIRYLQEIYNSNNQKIVNLKEKVAQLEAQCQEPCKDTVQIHDITGKDCQDIANKGAKQSGLYFIKPLKANQQFLVYCEIDGSGNGWTVFQKRLDGSVDFKKNWIQYKEGFGHLSPTGTTEFWLGNEKIHLISTQSAIPYALRVELEDWNGRTSTADYAMFKVGPEADKYRLTYAYFAGGDAGDAFDGFDFGDDPSDKFFTSHNGMQFSTWDNDNDKFEGNCAEQDGSGWWMNKCHAGHLNGVYYQGGTYSKASTPNGYDNGIIWATWKTRWYSMKKTTMKIIPFNRLTIGEGQQHHLGGAKQVRPEHPAETEYDSLYPEDDL
As to B1, in experiment [1], the dissociation constant (Kd) was 0.0155 µM and 0.0143 µM and 0.0151 µM; the koff is 0.000922 s⁻¹ and 0.000948 s⁻¹ and 0.000989 s⁻¹. In experiment [2], the Kd was 0.177 µM and 0.188 µM and 0.208 µM; the dissociation rate constant (koff) was 0.00271 s⁻¹ and 0.0024 s⁻¹ and 0.00216 s⁻¹.

These data come from PMC10641296 (2023).
